In patent US20100015135A1:
Numbering of substitutions follows the chain as printed. Each block holds one binder with its values, some of them ahead of it.

Legend:
[1] = molecular target: T1, human EphB4-His (human) (UniProt P54760); experiment: SPR, BIAcore-3000, antibody coupled to CM5 chip, EphB4-His injected, 25 C
T1 sequence (looked up): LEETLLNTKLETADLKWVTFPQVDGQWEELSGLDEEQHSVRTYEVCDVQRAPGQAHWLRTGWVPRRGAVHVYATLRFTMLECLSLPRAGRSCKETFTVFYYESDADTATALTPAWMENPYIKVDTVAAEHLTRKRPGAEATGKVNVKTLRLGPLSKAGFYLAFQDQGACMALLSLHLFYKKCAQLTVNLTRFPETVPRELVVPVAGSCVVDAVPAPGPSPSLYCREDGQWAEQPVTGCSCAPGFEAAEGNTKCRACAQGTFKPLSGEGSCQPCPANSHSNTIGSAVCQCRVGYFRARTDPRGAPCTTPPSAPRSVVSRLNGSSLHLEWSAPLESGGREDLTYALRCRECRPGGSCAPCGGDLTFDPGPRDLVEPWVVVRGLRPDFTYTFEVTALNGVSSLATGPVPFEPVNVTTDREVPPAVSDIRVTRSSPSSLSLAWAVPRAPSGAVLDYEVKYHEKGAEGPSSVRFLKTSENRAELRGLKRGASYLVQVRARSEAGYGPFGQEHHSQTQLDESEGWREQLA

[2] = molecular target: murine EphB4-His (murine) (UniProt P54761); experiment: as above

B1: anti-EphB4 antibody clone YW30.35 (antibody, V domains shown)
VH: EVQLVESGGGLVQPGGSLRLSCAASGFTISGYYIHWVRQAPGKGLEWVGGIYPYSGSTDYADSVKGRFTISADTSKNTAYLQMNSLRAEDTAVYYCARGSGLRLGGLDYAMDYWGQGTLVTVSS
VL: DIQMTQSPSSLSASVGDRVTITCRASQDVSTAVAWYQQKPGKAPKLLIYSASFLYSGVPSRFSGSGSGTDFTLTISSLQPEDFATYYCQQSYTTPPTFGQGTKVEIK
Kd [1]: 32 nM
koff [1]: 9.6e-05 s⁻¹
kon [1]: 3000 M⁻¹ s⁻¹
Kd [2]: 2.4 nM
koff [2]: 7.5e-05 s⁻¹
kon [2]: 31000 M⁻¹ s⁻¹

B2: anti-EphB4 antibody clone YW30.35.2D8 (antibody, V domains shown)
VH: B1 VH with T28S, G31N, I34L, P53L, S55G, G56S, T58S, D59E
VL: B1 VL with Q90E, Y92T
Kd [1]: < 0.12 nM
koff [1]: < 5e-06 s⁻¹
kon [1]: 40000 M⁻¹ s⁻¹
Kd [2]: < 0.05 nM
koff [2]: < 5e-06 s⁻¹
kon [2]: 92000 M⁻¹ s⁻¹

B4: anti-EphB4 antibody clone YW30.35.1D2 (antibody, V domains shown)
VH: B1 VH with G99S
VL: DIQMTQSPSSLSASVGDRVTITCRASQDSEIFLAWYQQKPGKAPKLLIYSASNLESGVPSRFSGSGSGTDFTLTISSLQPEDFATYYCQQSNAVPLTFGQGTKVEIK
Kd [1]: < 0.14 nM
koff [1]: < 5e-06 s⁻¹
kon [1]: 36000 M⁻¹ s⁻¹
Kd [2]: < 0.04 nM
koff [2]: < 5e-06 s⁻¹
kon [2]: 128000 M⁻¹ s⁻¹

Now from value to binder:

Kd [1]: < 0.19 nM
koff [1]: < 5e-06 s⁻¹
kon [1]: 27000 M⁻¹ s⁻¹
B3: anti-EphB4 antibody clone YW30.35.2D12 (antibody, V domains shown)
VH: B1 VH with P53L, T58R, D59G
VL: B1 VL with Q90K, Y92E, T94I, T97S

Kd [1]: < 0.11 nM
koff [1]: < 5e-06 s⁻¹
kon [1]: 45000 M⁻¹ s⁻¹
B5: anti-EphB4 antibody clone 30.35.2D13 (antibody, V domains shown)
VH: B1 VH with P53L
VL: B1 VL with S91T, Y92A, T93Q, P96E
